Test results published in patent US20250325643A1 (Genmab, published 2025).

Tests used:
[1] = target: T1, human CD27-A59T variant expressed on transiently transfected HEK293F cells (human, UniProt P26842 20-260); test: flow cytometry on HEK293F cells transiently transfected with human CD27-A59T, PE-labelled goat anti-human IgG, median MFI PE
T1 sequence: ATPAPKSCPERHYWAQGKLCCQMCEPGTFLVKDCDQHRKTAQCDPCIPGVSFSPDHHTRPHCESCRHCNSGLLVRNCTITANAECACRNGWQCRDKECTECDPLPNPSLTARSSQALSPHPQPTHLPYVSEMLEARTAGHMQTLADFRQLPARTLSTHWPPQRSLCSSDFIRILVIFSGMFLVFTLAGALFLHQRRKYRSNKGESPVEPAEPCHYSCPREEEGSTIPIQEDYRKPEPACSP
Protocol: Approximately 19% of the human population expresses a natural CD27 variant harboring an A59T mutation in the extracellular domain (SEQ ID NO. 2). […] Non-binding antibody IgG1-b12-FEAL was used as a negative control antibody. […] After incubation, antibodies were PE-labeled with polyclonal goat anti-human IgG. Binding was analyzed on a FACSCelesta flow cytometer (BD) and FlowJo software. Data were processed and visualized using GraphPad Prism v.8. *N.B. IgG1-CD27-A, -B and -C carried mutations F405L-L234F-L235E-D265A in the IgG Fc domain, which are functionally irrelevant in the context of this experiment.

[2] = target: T2, human CD27 expressed on cells (T cells, transfected HEK293F cells, Daudi cells, NFκB-luc2/CD27 Jurkat … (human, UniProt P26842 20-240)); test: flow cytometry on HEK293F cells transiently transfected with human CD27, PE-labelled goat anti-human IgG, median MFI PE
T2 construct: also called TNFRSF7
T2 sequence: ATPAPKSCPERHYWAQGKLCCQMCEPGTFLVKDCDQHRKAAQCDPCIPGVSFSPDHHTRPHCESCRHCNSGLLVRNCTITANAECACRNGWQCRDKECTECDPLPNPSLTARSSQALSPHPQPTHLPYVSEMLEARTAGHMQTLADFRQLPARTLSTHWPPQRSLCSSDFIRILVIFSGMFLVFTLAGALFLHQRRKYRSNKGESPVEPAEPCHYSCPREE

[3] = target: T2, human CD27 expressed on cells (T cells, …); test: flow cytometry on T cells in human PBMC (endogenous CD27), PE-labelled goat anti-human IgG, median MFI PE
Protocol: (§1) Non-binding control antibody IgG1-b12-FEAR was used as negative control antibody. *N.B. IgG1-CD27-A, -B, -C, -D and -E carried mutations F405L-L234F-L235E-D265A in the IgG Fc domain, which are functionally irrelevant in the context of this experiment.
(§2) Cells were seeded in 96-wells plates (100,000 cells per well; Greiner Bio-one, Cat #650180) for sequential incubations, with washing steps in between with FACS buffer, consisting of PBS (Lonza, Cat #BE17-517Q)+1% BSA (Roche, Cat #10735086001)+0.02% Sodium Azide (Bio-World, Cat #41920044-3). The following incubations were applied: antibody concentration series (0.0001-10 μg/mL final concentration) for 30 min at 4° C.; live/dead marker FVS510 (BD, Cat #564406, diluted 1:1,000 in PBS) for 20 min at RT; PE-labeled polyclonal goat anti-human IgG (Jackson Immuno Research, Cat #109-116-098, diluted 1:500) for 30 min at 4° C.; and anti-CD3 antibody for T-cell identification (anti-human CD3: BD, Cat #555335, diluted 1:10; anti-cyno CD3: Miltenyi, Cat #130-091-998, diluted 1:10) for 30 min at 4° C. All samples were analyzed on a FACSCelesta flow cytometer (BD) and FlowJo software. Data were processed and visualized using GraphPad Prism.

[4] = target: T3, cynomolgus monkey CD27 expressed on cells (cynomolgus monkey T cells, transfected HEK293F cells) (cynomolgus monkey, UniProt P26842 20-260 (human entry)); test: flow cytometry on HEK293F cells transiently transfected with cynomolgus monkey CD27, PE-labelled goat anti-human IgG, median MFI PE
T3 construct: also called cyno CD27
T3 chain: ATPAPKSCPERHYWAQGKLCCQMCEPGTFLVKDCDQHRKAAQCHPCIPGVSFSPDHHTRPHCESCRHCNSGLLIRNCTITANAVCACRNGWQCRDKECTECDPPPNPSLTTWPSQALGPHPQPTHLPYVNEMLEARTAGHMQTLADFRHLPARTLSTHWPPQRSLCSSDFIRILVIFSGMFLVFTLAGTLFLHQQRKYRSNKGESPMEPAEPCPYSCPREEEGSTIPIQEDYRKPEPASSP
Protocol: as §1, §2

[5] = target: T3, cynomolgus monkey CD27 expressed on …; test: flow cytometry on T cells in cynomolgus monkey PBMC (endogenous CD27), PE-labelled goat anti-human IgG, median MFI PE
Protocol: as §1, §2

[6] = target: T4, recombinant His-tagged human FcγRIa (Sino Biological, Cat #10256-H08S-B) (human, UniProt P12314 16-288); test: SPR (Biacore): His-tagged FcγRIa captured on an anti-His chip, antibody injected; resonance units against antibody concentration
T4 construct: Bought protein; not shown: His tag
Protocol: Binding of IgG1-CD27-A-P329R-E345R to human FcγR variants was analyzed using a Biacore surface plasmon resonance (SPR) system and compared to an anti-HIV gp120 antibody IgG1-b12 (ctrl). Biacore Series S Sensor Chips CM5 (Cytiva, Cat #29104988) were covalently coated with anti-His antibody using amine-coupling and His capture kits (Cytiva, Cat #BR100050 and Cat #29234602) according to the manufacturer's instructions. […] After three cycles of buffer, antibody samples were injected for 36 cycles to generate binding curves using antibody ranges of 0-3,000 nM for FcγRI and 0-10,000 nM for the other FcγRs. Each sample that was analyzed on an FcR-coated surface (Active Surface) was also analyzed on a parallel flow-cell without FcR (Reference Surface), which was used for background correction. Dissociation from the anti-His-coated surface was performed by regeneration of the surface using 10 mM Glycine-HCl pH 1.5 (Cytiva, Cat #BR100354). Sensograms were generated using Biacore Insight Evaluation software (Cytiva) and a four-parameter logistic (4PL) fit was applied to calculate relative binding of IgG1-CD27-A-P329R-E345R against the reference sample (ctrl).

[7] = target: T5, human FcγRIa on monocyte-derived macrophages (M0, M1, hMDM) (human, UniProt P12314 16-374); test: flow cytometry on M0 monocyte-derived macrophages, PE-labelled goat anti-human IgG
T5 construct: whole, on cells; The macrophages also express FcγRII and FcγRIIIa

[8] = target: T2, human CD27 expressed on cells (T cells, …); test: flow cytometry on CD4+ T cells in human PBMC, FITC-conjugated goat anti-human IgG F(ab')2, median FITC
Protocol: Binding of IgG1-CD27-A-P329R-E345R to CD27 on human healthy donor T cells was characterized in more detail using flow cytometry. Anti-HIV gp120 antibody variant IgG1-b12-P329R-E345R was used as non-binding control antibody (ctrl). Human PBMCs were isolated from buffy coats obtained from human healthy donors. PBMCs (1×10⁵ cells/well) in FACS buffer were added to polystyrene 96-well round-bottom plates (Greiner bio-one, Cat #650101) and pelleted by centrifugation at 300×g for 3 min at 4° C. The cells were resuspended in 50 μL/well serial antibody dilutions in FACS buffer (range 0.0015 to 10 μg/mL in 3-fold dilution steps) and incubated for 30 min at 4° C. Cells were pelleted, washed twice with FACS buffer and incubated in 50 μL/well with FITC-conjugated secondary antibody (FITC AffiniPure F(ab′)₂ fragment goat anti-human IgG, F(ab′)₂ fragment specific, Jackson ImmunoResearch, Cat #109-096-097, diluted 1:100) for 30 min at 4° C. in the dark. […] The samples were measured by flow cytometry on an LSRFortessa (BD) flow cytometer and analyzed using FlowJo software. Binding curves were analyzed using non-linear regression (sigmoidal dose-response with variable slope) using GraphPad Prism 8 software.

[9] = target: T6, human C1q (from normal human serum) (human, UniProt P02745 23-245; P02746 28-253; P02747 29-245); test: flow cytometry: human T cells opsonised with the antibody, 20% normal human serum as source of C1q, FITC-labelled rabbit anti-human C1q
T6 construct: 20% normal human serum was the source of C1q
T6 sequence (P02745 23-245 limits assumed, chain 1 of 3): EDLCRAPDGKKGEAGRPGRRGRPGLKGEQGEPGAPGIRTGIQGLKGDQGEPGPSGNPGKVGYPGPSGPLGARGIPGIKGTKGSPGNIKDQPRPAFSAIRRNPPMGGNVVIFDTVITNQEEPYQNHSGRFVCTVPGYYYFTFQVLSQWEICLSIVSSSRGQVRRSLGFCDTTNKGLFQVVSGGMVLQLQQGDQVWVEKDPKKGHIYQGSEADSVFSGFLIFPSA
T6 sequence (P02746 28-253 limits assumed, chain 2 of 3): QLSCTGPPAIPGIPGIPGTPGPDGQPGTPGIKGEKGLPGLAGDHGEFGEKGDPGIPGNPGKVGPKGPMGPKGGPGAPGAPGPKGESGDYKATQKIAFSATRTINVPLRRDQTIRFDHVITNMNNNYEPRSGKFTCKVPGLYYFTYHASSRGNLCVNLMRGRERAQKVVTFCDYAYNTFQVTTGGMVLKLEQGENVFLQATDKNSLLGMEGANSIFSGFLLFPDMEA
T6 sequence (P02747 29-245 limits assumed, chain 3 of 3): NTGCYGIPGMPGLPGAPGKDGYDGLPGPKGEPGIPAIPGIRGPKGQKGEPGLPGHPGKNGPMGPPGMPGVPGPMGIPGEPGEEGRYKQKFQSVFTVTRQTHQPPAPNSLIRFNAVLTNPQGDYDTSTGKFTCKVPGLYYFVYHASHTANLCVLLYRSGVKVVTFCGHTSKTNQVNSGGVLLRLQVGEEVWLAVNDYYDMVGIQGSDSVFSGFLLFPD

T4 sequence (P12314 16-288 limits assumed, stated change not applied): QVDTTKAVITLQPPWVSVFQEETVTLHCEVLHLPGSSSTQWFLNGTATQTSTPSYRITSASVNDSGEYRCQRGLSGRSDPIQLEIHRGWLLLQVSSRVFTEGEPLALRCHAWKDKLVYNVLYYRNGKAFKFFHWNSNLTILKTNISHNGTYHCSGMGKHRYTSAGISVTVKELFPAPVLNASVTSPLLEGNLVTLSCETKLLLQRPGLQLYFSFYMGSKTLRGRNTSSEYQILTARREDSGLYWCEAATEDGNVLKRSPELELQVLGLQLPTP
T5 sequence (P12314 16-374): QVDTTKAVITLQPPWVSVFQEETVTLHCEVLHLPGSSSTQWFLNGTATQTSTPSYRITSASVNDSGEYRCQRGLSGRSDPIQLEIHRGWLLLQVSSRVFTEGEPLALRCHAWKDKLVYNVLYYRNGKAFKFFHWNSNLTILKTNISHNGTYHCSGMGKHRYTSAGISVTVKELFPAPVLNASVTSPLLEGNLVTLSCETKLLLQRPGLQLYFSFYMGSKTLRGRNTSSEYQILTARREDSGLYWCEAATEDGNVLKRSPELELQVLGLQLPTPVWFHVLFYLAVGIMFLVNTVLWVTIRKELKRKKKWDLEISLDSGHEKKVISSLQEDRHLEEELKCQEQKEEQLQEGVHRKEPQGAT

B1: IgG1-CD27-A carrying mutations F405L-L234F-L235E-D265A in the IgG Fc domain (antibody, V domains shown)
VH: QVQLMQSGSELKKPGASVKVSCRASGYTFTTYAMNWVRQAPGQGPEWMGWINTNTGNPTYAQGFTGRFVFSLDTTVTTTYLQISSLKAEDTAVYFCAREAGSFDYWGQGTLVTVSS
VL: QSALTQPASVSGSPGQSITISCTGTSSDVYYYNYVSWYQQHPGRAPKLVIYDVSNRPSGVSNRFSGSKSGNTASLTISGLRAEDEADYYCSSYTVNRVWVFGGGTKLTVL
EC50 (read off the curve) [1]: ~0.2 µg/mL | EC50 (read off the curve) [2]: ~0.1 µg/mL | EC50 (read off the curve) [3]: ~0.04 µg/mL | EC50 (read off the curve) [4]: ~0.06 µg/mL | EC50 (read off the curve) [5]: ~0.04 µg/mL

B2: IgG1-b12 (wild-type IgG1 Fc) (antibody)
VH: not shown
VL: EIVLTQSPGTLSLSPGERATFSCRSSHSIRSRRVAWYQHKPGQAPRLVIHGVSNRASGISDRFSGSGSGTDFTLTITRVEPEDFALYYCQVYGASSYTFGQGTKLERKRTVAAPSVFIFPPSDEQLKSGTASVVCLLNNFYPREAKVQWKVDNALQSGNSQESVTEQDSKDSTYSLSSTLTLSKADYEKHKVYACEVTHQGLSSPVTKSFNRGEC
notes: also called WT IgG1-b12; ctrl
EC50 (read off the curve) [6]: ~60 nM

B3: IgG1-b12-P329R-E345R (antibody)
VH: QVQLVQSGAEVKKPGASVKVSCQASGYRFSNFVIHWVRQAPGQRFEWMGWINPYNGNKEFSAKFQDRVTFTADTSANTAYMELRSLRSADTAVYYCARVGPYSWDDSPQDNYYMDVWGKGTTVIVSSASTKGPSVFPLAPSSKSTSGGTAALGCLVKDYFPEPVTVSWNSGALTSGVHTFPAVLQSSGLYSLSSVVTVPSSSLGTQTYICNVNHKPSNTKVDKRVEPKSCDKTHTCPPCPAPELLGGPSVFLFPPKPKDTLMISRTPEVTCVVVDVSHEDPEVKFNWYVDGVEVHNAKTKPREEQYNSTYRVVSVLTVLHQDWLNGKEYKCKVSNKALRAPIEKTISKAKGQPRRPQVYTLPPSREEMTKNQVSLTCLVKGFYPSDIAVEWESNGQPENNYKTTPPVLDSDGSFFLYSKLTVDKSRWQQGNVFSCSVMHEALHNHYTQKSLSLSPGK
VL: EIVLTQSPGTLSLSPGERATFSCRSSHSIRSRRVAWYQHKPGQAPRLVIHGVSNRASGISDRFSGSGSGTDFTLTITRVEPEDFALYYCQVYGASSYTFGQGTKLERKRTVAAPSVFIFPPSDEQLKSGTASVVCLLNNFYPREAKVQWKVDNALQSGNSQESVTEQDSKDSTYSLSSTLTLSKADYEKHKVYACEVTHQGLSSPVTKSFNRGEC
notes: also called ctrl; IgG1-b12-E345R-P329R
binding result [7]: no binding (tested: 30 µg/mL) | binding result [8]: no binding (tested: 10 µg/ml)

B4: IgG1-CD27-A (wild-type IgG1 Fc) (antibody)
VH: not shown
VL: QSALTQPASVSGSPGQSITISCTGTSSDVYYYNYVSWYQQHPGRAPKLVIYDVSNRPSGVSNRFSGSKSGNTASLTISGLRAEDEADYYCSSYTVNRVWVFGGGTKLTVLGQPKAAPSVTLFPPSSEELQANKATLVCLISDFYPGAVTVAWKADSSPVKAGVETTTPSKQSNNKYAASSYLSLTPEQWKSHRSYSCQVTHEGSTVEKTVAPTECS
notes: Human IgG1 heavy chain backbone, wild-type Fc; also called WT IgG1-CD27-A; IgG-CD27-A
binding result [9]: no binding (tested: 15 µg/mL)

B5: IgG1-b12-FEAL (antibody, V domains shown)
VH: QVQLVQSGAEVKKPGASVKVSCQASGYRFSNFVIHWVRQAPGQRFEWMGWINPYNGNKEFSAKFQDRVTFTADTSANTAYMELRSLRSADTAVYYCARVGPYSWDDSPQDNYYMDVWGKGTTVIVSS
VL: EIVLTQSPGTLSLSPGERATFSCRSSHSIRSRRVAWYQHKPGQAPRLVIHGVSNRASGISDRFSGSGSGTDFTLTITRVEPEDFALYYCQVYGASSYTFGQGTKLERK
notes: also called ctrl
binding result [1]: no binding (tested: 10 µg/mL)
